The term Km denotes the substrate concentration at which the rate is half of its maximum. As a reminder, the kcat is the maximal rate divided by the concentration of active sites. A word on the kcat/Km: it is the second-order rate constant that governs catalysis at low substrate concentration.

Here are results for one substance from PMC6628648, “Enabling microbial syringol conversion through structure-guided protein engineering” (Proceedings of the National Academy of Sciences of the …, 2019).

Data set [1] relates to COc1cccc(OC)c1O. In words: purified protein, by the assay type. The settings on record: pH 7.5; 25.0 °C.
Data set [2] deals with COc1ccccc1O. In words: purified protein, by the assay type. The settings on record: pH 7.5; 25.0 °C.

Regarding “GcoA-F169A (Amycolatopsis sp. ATCC 39116; F169A)”, in data set [1], the Km is 10 ± 1 µM, the kcat was found to be 5.9 ± 0.01 s⁻¹ and the kcat/Km came out at 600000 ± 90000 M⁻¹ s⁻¹. Also, in data set [2], the Km stood at 40 ± 6 µM, the catalytic constant (kcat) stood at 11 ± 0.03 s⁻¹ and the catalytic efficiency (kcat/Km) came out at 290000 ± 40000 M⁻¹ s⁻¹.
